Data reported in patent US20260242478A1 (published 2026).
Where no end group is shown, it is not given here.

How the values were obtained:
PSMA Fab [1] = molecular target: T1, PSMA Fab; test: phage ELISA; biotinylated PSMA Fab on neutravidin plate, clonal phage supernatant, anti-M13 HRP detection, blocking buffer alone
T1 construct: also called Anti-PSMA Fab; 006 PSMA Fab
Procedure: (§1) Clonal phage were harvested as crude supernatants and screened via standard ELISAs. […] Prior to the addition of clonal phage. wells were incubated with blocking buffer and PSMA antigen or blocking buffer alone. Without washing or aspirating, clonal phage supernatants were then added to the wells and incubated for a short time. Wells were then washed followed by detection of bound phage using a horse radish conjugated anti-M13 antibody.

PSMA Fab [2] = molecular target: T1, PSMA Fab; test: phage ELISA; biotinylated PSMA Fab on neutravidin plate pre-incubated with PSMA antigen as competitor, anti-M13 HRP detection;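 also: crude clonal phage supernatants tested, compared against control wells pre-incubated with blocking buffer only, without PSMA antigen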
Procedure: as §1

[3] = molecular target: T2, Anti-PSMA Fab (SEQ ID NOs: 19, 20); test: phage binding ELISA; biotinylated Fab on neutravidin plate, anti-M13 HRP detection
T2 construct: Biotinylated and captured on neutravidin coated plates in the phage ELISA; also called 006 PSMA Fab
Procedure: as §1

[4] = molecular target: T2, Anti-PSMA Fab (SEQ ID NOs: 19, 20); test: phage binding ELISA on captured Fab; competitor PSMA antigen pre-incubated in the wells
Procedure: as §1

[5] = molecular target: T3, Anti-PSMA Fab (SEQ ID NOs: 19, 20); test: phage binding ELISA; biotinylated PSMA Fab on neutravidin plate, clonal phage supernatant, anti-M13 HRP detection;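 also: wells were preincubated with blocking buffer either containing PSMA antigen or without it before crude phage supernatant was added, briefly incubated, then washed prior to detection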
T3 construct: Biotinylated and captured on neutravidin-coated plates in the phage ELISA; also called 006 PSMA Fab
Procedure: as §1

[6] = molecular target: T3, Anti-PSMA Fab (SEQ ID NOs: 19, 20); test: phage binding ELISA; PSMA Fab on plate pre-incubated with PSMA antigen as competitor, anti-M13 HRP detection;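 also: crude clonal phage supernatants added without washing to wells preincubated with PSMA in blocking buffer, compared with wells receiving blocking buffer only, then bound phage detected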
Procedure: as §1

[7] = molecular target: T4, Anti-PSMA Fab (SEQ ID NOs: 19, 20); test: phage binding ELISA; clonal phage on biotinylated anti-PSMA Fab captured on neutravidin, anti-M13 HRP detection
T4 construct: In the phage ELISA the Fab was biotinylated and captured on neutravidin coated plates; also called 006 PSMA Fab
Procedure: as §1

[8] = molecular target: T4, Anti-PSMA Fab (SEQ ID NOs: 19, 20); test: phage binding ELISA on captured anti-PSMA Fab; competitor: PSMA antigen
Procedure: as §1

Row | Binder | Anti-PSMA Fab (SEQ ID NOs: 19, 20) signal [3] | Anti-PSMA Fab signal in the presence of PSMA [4] | Anti-PSMA Fab (SEQ ID NOs: 19, 20) signal [5] | Anti-PSMA Fab signal in the presence of PSMA [6] | further results
1 | EEKMCKPSWMCQLF (Peptide-180 library clone, tested as clonal phage supernatant) [Phage-2362] |  |  |  |  | Phage binding ELISA signal, Anti-PSMA Fab (PSMA Fab [1]): 1.41; Phage binding ELISA signal, Anti-PSMA Fab in the presence of PSMA antigen (PSMA Fab [2]): 0.09
2 | ESHLCIPAWMCDVQ (Clonal phage of the peptide-180 library, tested as crude phage supernatant; not shown: fused to pIII of the bacteriophage) [Phage-2193] | 1.63 | 0.0973 |  |  | 
3 | LMNWCIPPWMCSAQ [Phage-2242 peptide (SEQ ID NO: 2558)] |  |  | 1.56 | 0.0907 | 
4 | GEIWCTPKWMCDGF [Phage-2246 peptide (SEQ ID NO: 2562)] |  |  | 1.55 | 0.0716 | 
5 | NIIRCTPAWMCDGF [Phage-2247 peptide (SEQ ID NO: 2563)] |  |  | 1.55 | 0.0619 | 
6 | IDKWCIPAWMCEST [Phage-2250 peptide (SEQ ID NO: 2566)] |  |  | 1.55 | 0.105 | 
7 | DVNWCTPPWMCWGF (Clonal phage of the peptide-180 library, tested as crude phage supernatant; not shown: fused to pIII of the bacteriophage) [Phage-2198] | 1.62 | 0.0743 |  |  | 
8 | IIKWCTPEWMCVGF [Phage-2249 peptide (SEQ ID NO: 2565)] |  |  | 1.55 | 0.0748 | 
9 | LMKWCIPQWMCQLD [Phage-2243 peptide (SEQ ID NO: 2559)] |  |  | 1.56 | 0.249 | 
10 | MERWCIPEWMCERT (Clonal phage of the peptide-180 library, tested as crude phage supernatant; not shown: fused to pIII of the bacteriophage) [Phage-2203] | 1.61 | 0.072 |  |  | 
11 | LVKLCIPEWMCSEG [Phage-2244 peptide (SEQ ID NO: 2560)] |  |  | 1.56 | 0.0711 | 
12 | EYNWCTPRWMCKGF (Clonal phage of the peptide-180 library, tested as crude phage supernatant; not shown: fused to pIII of the bacteriophage) [Phage-2201] | 1.62 | 0.0617 |  |  | 
13 | GTNWCTPAWMCAGF (cysteine pairing not given here; also: displayed on bacteriophage as fusion to pIII) [Phage-2251 peptide (SEQ ID NO: 2567)] |  |  | 1.55 | 0.061 | 
14 | MTPWCKPAWMCQGI (Clonal phage of the peptide-180 library, tested as crude phage supernatant; not shown: fused to pIII of the bacteriophage) [Phage-2192] | 1.63 | 0.0994 |  |  | 
15 | AANWCTPPWMCLGF (Peptide-180 library clone, tested as clonal phage supernatant) [Phage-2359] |  |  |  |  | Phage binding ELISA signal, Anti-PSMA Fab (PSMA Fab [1]): 1.42; Phage binding ELISA signal, Anti-PSMA Fab in the presence of PSMA antigen (PSMA Fab [2]): 0.0888
16 | HAMWCIPAWMCENL (Clonal phage of the peptide-180 library, tested as crude phage supernatant; not shown: fused to pIII of the bacteriophage) [Phage-2194] | 1.63 | 0.0809 |  |  | 
17 | GEIWCIPAWMCNTG (Clonal phage of the peptide-180 library, tested as crude phage supernatant; not shown: fused to pIII of the bacteriophage) [Phage-2200] | 1.62 | 0.0549 |  |  | 
18 | MDNWCTPEWMCLGF [Phage-1828] |  |  |  |  | Anti-PSMA Fab (SEQ ID NOs: 19, 20) signal [7]: 2.3; Anti-PSMA Fab signal in the presence of PSMA [8]: 0.065

Row | Binder | Anti-PSMA Fab (SEQ ID NOs: 19, 20) signal [3] | Anti-PSMA Fab signal in the presence of PSMA [4] | Anti-PSMA Fab (SEQ ID NOs: 19, 20) signal [5] | Anti-PSMA Fab signal in the presence of PSMA [6] | further results
19 | ADKWCIPEWMCQQD [Phage-2252 peptide (SEQ ID NO: 2568)] |  |  | 1.55 | 0.0665 | 
20 | DLKLCKPEWMCNGM (Clonal phage of the peptide-180 library, tested as crude phage supernatant; not shown: fused to pIII of the bacteriophage) [Phage-2204] | 1.61 | 0.0815 |  |  | 
21 | HDKWCIPEWMCISL (Clonal phage of the peptide-180 library, tested as crude phage supernatant; not shown: fused to pIII of the bacteriophage) [Phage-2202] | 1.62 | 0.075 |  |  | 
22 | LEKWCIPSWMCDGM (Clonal phage of the peptide-180 library, tested as crude phage supernatant; not shown: fused to pIII of the bacteriophage) [Phage-2197] | 1.62 | 0.0637 |  |  | 
23 | VEKWCIPSWMCQEL (Clonal phage of the peptide-180 library, tested as crude phage supernatant; not shown: fused to pIII of the bacteriophage) [Phage-2199] | 1.62 | 0.0642 |  |  | 
24 | DFKWCIPTWMCEVY [Phage-2238 peptide (SEQ ID NO: 2554)] |  |  | 1.56 | 0.0768 | 
25 | EEKWCRPAWMCEHA (Peptide-180 library clone, tested as clonal phage supernatant) [Phage-2360] |  |  |  |  | Phage binding ELISA signal, Anti-PSMA Fab (PSMA Fab [1]): 1.42; Phage binding ELISA signal, Anti-PSMA Fab in the presence of PSMA antigen (PSMA Fab [2]): 0.0625
26 | AERWCIPDWMCNVI (Peptide-180 library clone, tested as clonal phage supernatant) [Phage-2363] |  |  |  |  | Phage binding ELISA signal, Anti-PSMA Fab (PSMA Fab [1]): 1.41; Phage binding ELISA signal, Anti-PSMA Fab in the presence of PSMA antigen (PSMA Fab [2]): 0.0567
27 | VDRLCTPEWMCSGF (Clonal phage of the peptide-180 library, tested as crude phage supernatant; not shown: fused to pIII of the bacteriophage) [Phage-2205] | 1.61 | 0.0763 |  |  | 
28 | LADWCRPVWMCEGF (Clonal phage of the peptide-180 library, tested as crude phage supernatant; not shown: fused to pIII of the bacteriophage) [Phage-2196] | 1.62 | 0.287 |  |  | 
29 | HPNWCTPPWMCLGL [Phage-2239 peptide (SEQ ID NO: 2555)] |  |  | 1.56 | 0.0699 | 
30 | EPKWCTPAWMCEWM [Phage-1830] |  |  |  |  | Anti-PSMA Fab (SEQ ID NOs: 19, 20) signal [7]: 2.29; Anti-PSMA Fab signal in the presence of PSMA [8]: 0.0904
31 | ITPWCIPPWMCPGP (Peptide-180 library clone, tested as clonal phage supernatant) [Phage-2361] |  |  |  |  | Phage binding ELISA signal, Anti-PSMA Fab (PSMA Fab [1]): 1.42; Phage binding ELISA signal, Anti-PSMA Fab in the presence of PSMA antigen (PSMA Fab [2]): 0.0746
32 | LYKWCMPAWMCEQK (Clonal phage of the peptide-180 library, tested as crude phage supernatant; not shown: fused to pIII of the bacteriophage) [Phage-2195] | 1.62 | 0.0702 |  |  | 
33 | LENWCKPAWMCWGM [Phage-2248 peptide (SEQ ID NO: 2564)] |  |  | 1.55 | 0.0811 | 
34 | VVKWCIPTWMCENS [Phage-2241 peptide (SEQ ID NO: 2557)] |  |  | 1.56 | 0.0889 | 
35 | MDKWCTPPWMCDWL [Phage-1829] |  |  |  |  | Anti-PSMA Fab (SEQ ID NOs: 19, 20) signal [7]: 2.3; Anti-PSMA Fab signal in the presence of PSMA [8]: 0.136
36 | SEKLCIPEWMCAQA (cysteine pairing not given here; also: displayed on bacteriophage as fusion to pIII) [Phage-2245 peptide (SEQ ID NO: 2561)] |  |  | 1.56 | 0.0686 | 
